Data published in patent publication US20220211798A1, “THERAPY GUIDANCE AND/OR THERAPY MONITORING FOR A TREATMENT WITH ANGIOTENSIN-RECEPTOR-AGONIST AND/OR A PRECURSOR THEREOF” (4TEEN4 PHARMACEUTICALS GMBH, priority 2018, published 2022).
Entries after “also recorded” stand apart in the source; their conditions may differ.

How the values were obtained:
[1] = system: Patients with vasodilatory shock; details: vasodilatory shock (80% in septic shock); cited from earlier work
[2] = system: healthy Black 6 mice injected with DPP3; assay: Effect of Valsartan in healthy mice injected with DPP3; format: in vivo
Method: The effect of an antagonist for the type I angiotensin II receptor (ATR1), Valsartan, in healthy mice injected with DPP3 was studied by monitoring the shortening fraction. In this experiment, healthy Black 6 mice (8-12 weeks, group size refer to table 8) consumed water with 50 mg/kg Valsartan per day or just water (Table 8) for a period of two weeks. Subsequently, both groups received an intravenous injection of native DPP3 (600 μg/kg) and the shortening fraction was assessed according to Gao et al., 2011 at 15, 60 and 120 minutes (FIG. 12).

Wild type Black 6 mice = assay: Effect of native DPP3 injection in healthy mice; format: in vivo; details: 600 μg/kg intravenously, compared to PBS control
Method: The effect of native hDPP3 injection in healthy mice was studied by monitoring the shortening fraction and renal resistive index.
Wild type Black 6 mice (8-12 weeks, group size refer to table 3) were acclimated during 2 weeks and a baseline echocardiography was done. The mice were randomly allocated to one of the two groups and, subsequently, native DPP3 protein or PBS were injected intravenously via a retro-orbital injection with a dose of 600 μg/kg for DPP3 protein.
After DPP3 or PBS injection, cardiac function was assessed by echocardiography (Gao et al. 2011) and renal function assessed by renal resistive index (Lubas et al., 2014, Dewitte et al, 2012) at 15, 60 and 120 minutes (FIG. 3).

normotensive mice = details: cited from earlier work
[3] = system: AngII-infused hypertensive mice; details: cited from earlier work

## Asp-Arg-Val-Tyr-Ile-His-Pro-Phe (DRVYIHPF; listed as Homo sapiens) [angiotensin II]
[1]
  hypotension: significant correction of hypotension
  survival to 28 days: more likely to survive to 28 days

## CCCCC(=O)N(Cc1ccc(-c2ccccc2-c2nnn[nH]2)cc1)[C@H](C(=O)O)C(C)C [Valsartan]
[2]; 50 mg/kg Valsartan per day in water for two weeks, then native DPP3 600 μg/kg intravenous
  shortening fraction after DPP3 injection: rescued; also recorded: no signs of heart dysfunction

B1: native DPP3: native human Dipeptidyl peptidase 3 purified from human erythrocyte lysate (protein)
chain: ADTQYILPNDIGVSSLDCREAFRLLSPTERLYAYHLSRAAWYGGLAVLLQTSPEAPYIYALLSRLFRAQDPDQLRQHALAEGLTEEEYQAFLVYAAGVYSNMGNYKSFGDTKFVPNLPKEKLERVILGSEAAQQHPEEVRGLWQTCGELMFSLEPRLRHLGLGKEGITTYFSGNCTMEDAKLAQDFLDSQNLSAYNTRLFKEVDGEGKPYYEVRLASVLGSEPSLDSEVTSKLKSYEFRGSPFQVTRGDYAPILQKVVEQLEKAKAYAANSHQGQMLAQYIESFTQGSIEAHKRGSRFWIQDKGPIVESYIGFIESYRDPFGSRGEFEGFVAVVNKAMSAKFERLVASAEQLLKELPWPPTFEKDKFLTPDFTSLDVLTFAGSGIPAGINIPNYDDLRQTEGFKNVSLGNVLAVAYATQREKLTFLEEDDKDLYILWKGPSFDVQVGLHELLGHGSGKLFVQDEKGAFNFDQETVINPETGEQIQSWYRSGETWDSKFSTIASSYEECRAESVGLYLCLHPQVLEIFGFEGADAEDVIYVNWLNMVRAGLLALEFYTPEAFNWRQAHMQARFVILRVLLEAGEGLVTITPTTGSDGRPDARVRLDRSKIRSVGKPALERFLRRLQVLKSTGDVAGGRALYEGYATVTDAPPECFLTLRDTVLLRKESRKLIVQPNTRLEGSDVQLLEYEASAAGLIRSFSERFPEDGPELEEILTQLATADARFWKGPSEAPSGQA
Wild type Black 6 mice
  renal resistive index (renal function): renal resistive index increase
  shortening fraction: significantly reduced shortening fraction
Wild type Black 6 mice; listed as DPP3
  renal resistive index (renal function): increased renal resistive index
  shortening fraction: shortening fraction reduction
[2]; native DPP3 600 μg/kg intravenous, mice on water without Valsartan
  shortening fraction: significant decrease in the shortening fraction
Normotensive mice
  blood pressure: no alteration in blood pressure
[3]
  blood pressure: reduced blood pressure
  heart rate: without changing heart rate
